Legend:
[1] = Toxicity deaths (LD50) in Balb/c mice; type: in vivo, mouse; settings: i.v. twice per week, five times; female Balb/c mice
Method: (§1) The following experiments were performed in order to calculate a therapeutic index (ratio of toxicity and effectiveness). 2×10^5 Meth A mouse sarcoma cells were transplanted into the dorsal subcutis of 6-week-old female Balb/c mice in single groups comprising from 5 to 10 animals. Seven days after the tumor transplant, the tested substance was dissolved in physiological saline (9.9×10^7 units/ml, 5×10^7 units/mg), and this solution was administered intravenously to the mice twice per week; a total five times. In a control group, physiological saline alone was administered intravenously.
(§2) Based on the tumor growth restriction rates obtained at various concentrations, concentrations restricting tumor growth by 50% (50% effective dose; ED50 mg/kg) were calculated. In each administration group, when toxicity deaths were observed, a 50% lethal quantity (50% lethal dose; LD50 mg/kg) was calculated. The therapeutic index was taken as the ratio of the 50% lethal quantity (LD50) to the 50% tumor growth restriction quantity (ED50)
(§3) Control Δ10LT^4) was the TNF disclosed in JJP, A, S60-185799.

[2] = previously known; cited from earlier work
[3] = Effect on systolic blood pressure in SD rats; type: in vivo, rat; settings: 1 mg/kg i.v., t-test *P < 0.05 for PΔ10LT, FΔ10LT, Δ10LT, LT, TNFα, -- for FPΔ10LT, MLT
Description: Using 11-week-old Crj:CD(SD) rats 350 to 400 g in weight (Nihon Charles River), effects of each test substance on blood pressure were investigated as follows. The aforementioned rats were given ether anesthesia, hair in the right femoral region was cue with clippers, and the skin was cut open using a small scissors. Xylocaine jelly (local anesthetic) was then applied to the cut skin, and each blood vessel was carefully peeled using a tweezers. After the peeling, an SP10 cannulation tube equipped with a three-way cock (Natsume) was attached to arteries and veins, and 200 unit/ml heparin solution was injected therefrom.
After insertion, the skin was sutured using an automatic stitcher, and the rats were secured to a stationary platform (Natsume, Boormann cage). After securing, air in the three-way cock of the arterial cannula was completely removed, and a polygraph (Nihon Denki Sanei, Model 363 System) pressure transducer was connected. After connection, the polygraph was set up, blood pressure measurement was begun, and when blood pressure and heart rate had stabilized, each tested substance used in the foregoing antitumor effect testing was administered by intravenous injection, and 24 hour systolic blood pressure was measured after administration. […]

[4] = test system: Meth A mouse sarcoma cells; test: Antitumor effect on Meth A mouse sarcoma transplanted into Balb/c mice; type: in vivo; settings: for Inhibition rate (tumor growth restriction rate): day 21
Method: as §1
When 21 days following the transplant had passed, surviving animals were sacrificed, and tumors were excised. The excised tumors were weighed, and a mean tumor weight was calculated in each group. The mean tumor weight in each administration group was compared with the mean tumor weight in the control group, and tumor growth restriction rates were determined.
as §2, §3

| Molecule | LD50 [1] | hypotensive effect, in words [2] | Decrease of blood pressure (% of the control value) 24 hours after administration [3] | Inhibition rate (tumor growth restriction rate) ([4]; 0.23 mg/kg i.v. twice per week, five times) | Inhibition rate (tumor growth restriction rate) ([4]; 0.94 mg/kg i.v. twice per week, five times) | ED50 (50% tumor growth restriction) ([4]; i.v. twice per week, five times, Meth A, female Balb/c mice) | Treatment coefficient (LD50/ED50) ([4]; therapeutic index, LD50/ED50) |
| --- | --- | --- | --- | --- | --- | --- | --- |
| TNFα | 1.08 mg/kg | hypotension is a side effect | -9.6% | 43.3% | 86.5% | 0.31 mg/kg | 3.5 |
| LT: native-form human lymphotoxin (LT) (protein, UniProt P01374 35-205, looked up) Lymphotoxin-alpha: LPGVGLTPSAAQTARQHPKMHLAHSTLKPAAHLIGDPSKQNSLLWRANTDRAFLQDGFSLSNNSLLVPTSGIYFVYSQVVFSGKAYSPKATSSPLYLAHEVQLFSSQYPFHVPLLSSQKMVYPGLQEPWLHSMYHGAAFQLTQGDQLSTHTDGIPHLVLSPSTVFFGAFAL | – | also has a hypotensive effect | -10.1% | – | – | – | – |

From patent US5639728A, “Antineoplastic peptide” (priority 1993, dated 1997)
